Laboratory results published in patent US4496689A, “Covalently attached complex of alpha-1-proteinase inhibitor with a water soluble polymer” (Miles Laboratories, Inc., priority 1983, dated 1985).

Key:
elastase [1] = target: T1, elastase (Sus scrofa, UniProt P00772); assay: pH stability (pH 3.0), recovery of EIC; format: physicochemical, porcine; details: pH 3.0 for 24 hours at +5° C.; for Recovery of EIC as % of Control After Adjustment to pH 7.4, Incubation Time 24 hrs. (5° C.): back to pH 7.40, further 24 hrs. at 5° C.; for Recovery of EIC as % of Control After Adjustment to pH 7.4, Immediate: then back to pH 7.40, assayed immediately
T1 construct: purchased Sigma Chemicals Co. (St. Louis, MO)
Procedure: In order to investigate the pH stability of these preparations, experimental samples were adjusted to pH 3.0 with controls at pH 7.40 and incubated for 24 hours at +5° C. Following this, pH was adjusted back up to 7.40 for the experimental samples and EIC assays carried out immediately. Samples were further incubated for 24 hours at +5° C. and reassayed.

[2] = system: Antiserum (rabbit anti-human) to alpha-l-proteinase inhibitor; assay: Precipitin reaction with rabbit antiserum to the unmodified protein; format: binding; details: for Precipitin Reaction: rabbit antiserum dil. 1:2; for Amount of protein needed to obtain a strong precipitin reaction: rabbit antiserum to the unmodified protein
Procedure: Antiserum (rabbit anti-human) to alpha-l-proteinase inhibitor was obtained from Miles Laboratories (Elkhart, IN).
For unmodified alpha-1-proteinase inhibitor, only 0.092 μg of protein was sufficient to obtain a strong precipitin reaction. For the 0.117 moles dextran/mole alpha-1-proteinase inhibitor conjugate, 14.5 μg of alpha-1-proteinase inhibitor was needed to elicit a similar response--a very significant increase of antigen concentration. For the 0.585 moles dextran/mole alpha-1-proteinase inhibitor conjugate increase of antigen concentration up to 29.0 μg was not sufficient to obtain a strong precipitin reaction with the antiserum.

[3] = target: T2, Porcine pancreatic elastase type III (Sus scrofa, UniProt P00772); assay: Association rate constant (kassoc) between enzyme and inhibitor; format: biochemical; details: for t0.5 (half life of the enzyme-inhibitor association reaction) / kassoc, rate constant for the association between the enzyme and the inhibitor: equimolar enzyme and inhibitor, 3.37×10^-7, 37° C., pH 7.4; for kassoc, rate constant for the association between the enzyme and the inhibitor: calculated by equation (4); for Initial Reac. Rate: 37° C.
T2 construct: purchased Sigma Chemicals Co. (St. Louis, MO)
Procedure: Association constants (kassoc) between the enzyme (E) and the inhibitor (I) were determined as follows: 25 μl each of equimolar amounts of the enzyme and the inhibitor were incubated at 37° C. with 1950 μl of buffer (0.05M TRIS, 0.15M NaCl, pH 7.4) (TRIS® is tris(hydroxymethyl)amino methane, supplied by Sigma, St. Louis, Mo.) to obtain a resultant concentration of 3.37×10^-7. At various times, a 200 μl aliquot of the enzyme-inhibitor solution was added to 780 μl buffer and 20 μl substrate (SA3 pNA) (60 mM) and the hydrolysis rate followed in the temperature controlled (37° C.) cuvette with a recorder (Model 6051, Gilford Instruments, Oberlin, Ohio) attachment. During hydrolysis no further enzyme-inhibitor association was assumed (5 fold dilution compared to preincubation) and the initial reaction rate (v) was indicative of the free enzyme (E) present at the end of the respective preincubation times. Enzyme inhibitor association is represented as: [formula] for kdissoc .perspectiveto.0 and equimolar concentrations of E and I we get
With initial conditions t=0, E=Eo (all free enzyme) equation (2) integrates to
By defining half life of the reaction t0.5 to be at E=0.5Eo we get
The initial reaction rate (Δ absorbance/5 minutes) depicts the hydrolysis rate of the substrate by the free enzyme present following the respective preincubation time. Initial reaction rate, in the absence of the inhibitor, was determined and the time required for this rate to decrease to half of its original value (t0.5) was calculated. Equation (4) was subsequently used to calculate kassoc for each of the 3 cases.

[4] = target: T2, Porcine pancreatic elastase type III; assay: Elastase inhibitory capacity (EIC) assay with chromogenic substrate SA3 pNA; format: biochemical; details: for % EIC Recovered: recovery across covalent coupling
Excerpt: Porcine pancreatic elastase type III and chromogenic substrate N-succinyl-L-anlanyl-L-alanyl-L-alanyl-p-nitroanilide (SA3 pNA) were obtained from Sigma Chemicals Co. (St. Louis, MO). Hydrolysis of the chromogenic substrate by the elastase liberates p-nitroaniline which gives a yellow color whose absorbance is measurable spectrophotometrically (Model 1084 UV Spectrophotometer, Gilford Instruments, Oberlin, OH) at 405 nm.
Comparisons of the linear changes of absorbance with time both in the presence and in the absence of sample alpha-l-proteinase inhibitor and of sample alpha-l-proteinase inhibitor-dextran covalent complex were made. The amount of inhibitor was then calculated based on the known molecular weights of the elastase and alpha-l-proteinase inhibitor, on the known 1:1 stoichrometry, and on the known amount of elastase used. A pool of normal human plasma (>1000 donors) was used as the standard and assigned a value of 1 μ/ml of α1 PI.

elastase [5] = target: T1, elastase; assay: Heat stability at 60° C., EIC readout; format: physicochemical, porcine; details: within 60 minutes (FIG. 1)
Procedure: Alpha-1-proteinase inhibitor and its dextran conjugates, with and without added beef liver catalase as antioxidant, were heated in closed tubes at 60±0.2° C. The tubes were preheated and due to large mass difference the samples reached the bath temperature in less than 60 seconds. At designated time intervals samples were withdrawn and instantaneously cooled down (by ice bath) to room temperature prior to assay.
A significant difference here is observed between the native protein and its conjugates.

elastase [6] = target: T1, elastase; assay: Oxidative inactivation by H2O2, recovery of EIC; format: physicochemical, porcine; details: 0-28 mM H2O2, 37° C., 1 hour, pH 7.4 (FIG. 2)
Procedure: Hydrogen peroxide (30% solution, Sigma Chemicals) was used as the oxidation agent to investigate the effect of 0-28 mM H2 O2 on the recovery of elastase inhibitory capacity (EIC) following incubation at 37° C. for 1 hour.
FIG. 2 (oxidation at pH 7.4) depicts the effects of various concentrations of H2 O2 on the samples. […] It is to be understood that any antioxidant enzyme may be used, e.g. catalase or an equivalent enzyme such as superoxide dismutase.

porcine elastase = details: each at 1.4×10^-8 M; Beatty et al, J. Biol. Chem., 255, 3931 (1980); cited from earlier work
[7] = bovine liver catalase modified with methoxypolyethylene glycol; Abuchowski et al; cited from earlier work

T1 sequence (P00772 27-266): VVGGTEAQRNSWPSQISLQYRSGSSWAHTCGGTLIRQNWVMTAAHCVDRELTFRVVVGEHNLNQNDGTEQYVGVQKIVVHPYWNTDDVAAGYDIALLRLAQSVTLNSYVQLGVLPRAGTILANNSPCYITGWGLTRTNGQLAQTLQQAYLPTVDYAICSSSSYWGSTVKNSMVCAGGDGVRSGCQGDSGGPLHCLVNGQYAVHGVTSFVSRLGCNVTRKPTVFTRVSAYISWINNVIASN
T2 sequence (P00772 27-266): as above

4: alpha-1-proteinase inhibitor-dextran complex, dextran mol. wt. 10,300, 100 mg inhibitor per gram of dextran, ratio 0.117 [Example 4]
Recovery of EIC as % of Control After Adjustment to pH 7.4, Incubation Time 24 hrs. (5° C.) (elastase [1]): 81% | Recovery of EIC as % of Control After Adjustment to pH 7.4, Immediate (elastase [1]): 68% | Precipitin Reaction ([2]; antigen conc. 14.5 μg): Strong | Amount of protein needed to obtain a strong precipitin reaction [2]: 14.5 µg | t0.5 (half life of the enzyme-inhibitor association reaction) [3]: 21.49 s | kassoc, rate constant for the association between the enzyme and the inhibitor [3]: 141000 M⁻¹ s⁻¹ | Initial Reac. Rate ([3]; preincubation time 20 secs.): 0.450 Δ absorbance/5 minutes | Initial Reac. Rate ([3]; preincubation time 45 secs.): 0.285 Δ absorbance/5 minutes | Initial Reac. Rate ([3]; preincubation time 75 secs.): 0.195 Δ absorbance/5 minutes | Initial Reac. Rate ([3]; preincubation time 120 secs.): 0.130 Δ absorbance/5 minutes | % EIC Recovered [4]: 28.8%

5: alpha-1-proteinase inhibitor-dextran complex, dextran mol. wt. 10,300, 20 mg inhibitor per gram of dextran, ratio 0.585 [Example 5]
Recovery of EIC as % of Control After Adjustment to pH 7.4, Immediate (elastase [1]): 55% | Precipitin Reaction ([2]; antigen conc. 1.95 μg): Weak | Precipitin Reaction ([2]; antigen conc. 29.0 μg): Weak | Amount of protein needed to obtain a strong precipitin reaction [2]: > 29.0 µg | t0.5 (half life of the enzyme-inhibitor association reaction) [3]: 34.67 s | kassoc, rate constant for the association between the enzyme and the inhibitor [3]: 85600 M⁻¹ s⁻¹ | Initial Reac. Rate ([3]; preincubation time 25 secs.): 0.495 Δ absorbance/5 minutes | Initial Reac. Rate ([3]; preincubation time 65 secs.): 0.285 Δ absorbance/5 minutes | Initial Reac. Rate ([3]; preincubation time 100 secs.): 0.205 Δ absorbance/5 minutes | Initial Reac. Rate ([3]; preincubation time 145 secs.): 0.135 Δ absorbance/5 minutes | % EIC Recovered [4]: 18.4%

Native α1 PI: human plasma glycoprotein alpha-1-proteinase inhibitor, molecular weight 53,000, purified from Cohn Fraction IV-1
Recovery of EIC as % of Control After Adjustment to pH 7.4, Incubation Time 24 hrs. (5° C.) (elastase [1]): 66% | Loss of initial activity (EIC) on heating (elastase [5]): > 90% | Precipitin Reaction ([2]; antigen conc. 0.092 μg): Strong | Amount of protein needed to obtain a strong precipitin reaction [2]: 0.092 µg | kassoc, rate constant for the association between the enzyme and the inhibitor [3]: 185000 M⁻¹ s⁻¹ | kassoc, rate constant for the association between the enzyme and the inhibitor ([3]; listed as native protein): 185000 M⁻¹ s⁻¹ | Initial Reac. Rate ([3]; preincubation time 15 secs.): 0.460 Δ absorbance/5 minutes | Initial Reac. Rate ([3]; preincubation time 30 secs.): 0.310 Δ absorbance/5 minutes | Initial Reac. Rate ([3]; preincubation time 60 secs.): 0.173 Δ absorbance/5 minutes | Initial Reac. Rate ([3]; preincubation time 65 secs.): 0.170 Δ absorbance/5 minutes | Initial Reac. Rate ([3]; preincubation time 90 secs.): 0.128 Δ absorbance/5 minutes | Elastase inhibitory capacity/mg total protein ([4]; purified from Cohn Fraction IV-1): 1.5 | Effect of H2O2 oxidation on EIC (elastase [6]): significant progressive loss of EIC | kassoc (porcine elastase): 1×10^5 M^-1 sec.^-1

B1: PEG-1900-catalase: bovine liver catalase covalently modified with methoxypolyethylene glycol of 1900 daltons using cyanuric chloride (Abuchowski et al) (conjugate, UniProt P00432 2-527, looked up)
Catalase: ADNRDPASDQMKHWKEQRAAQKPDVLTTGGGNPVGDKLNSLTVGPRGPLLVQDVVFTDEMAHFDRERIPERVVHAKGAGAFGYFEVTHDITRYSKAKVFEHIGKRTPIAVRFSTVAGESGSADTVRDPRGFAVKFYTEDGNWDLVGNNTPIFFIRDALLFPSFIHSQKRNPQTHLKDPDMVWDFWSLRPESLHQVSFLFSDRGIPDGHRHMNGYGSHTFKLVNANGEAVYCKFHYKTDQGIKNLSVEDAARLAHEDPDYGLRDLFNAIATGNYPSWTLYIQVMTFSEAEIFPFNPFDLTKVWPHGDYPLIPVGKLVLNRNPVNYFAEVEQLAFDPSNMPPGIEPSPDKMLQGRLFAYPDTHRHRLGPNYLQIPVNCPYRARVANYQRDGPMCMMDNQGGAPNYYPNSFSAPEHQPSALEHRTHFSGDVQRFNSANDDNVTQVRTFYLKVLNEEQRKRLCENIAGHLKDAQLFIQKKAVKNFSDVHPEYGSRIQALLDKYNEEKPKNAVHTYVQHGSHLSAREKANL
modifications: mPEG 1900
Retained enzymatic activity [7]: 93%

B2: PEG-5000-catalase: bovine liver catalase covalently modified with methoxypolyethylene glycol PEG-5000 using cyanuric chloride (Abuchowski et al) (conjugate, UniProt P00432 2-527, looked up)
Catalase: ADNRDPASDQMKHWKEQRAAQKPDVLTTGGGNPVGDKLNSLTVGPRGPLLVQDVVFTDEMAHFDRERIPERVVHAKGAGAFGYFEVTHDITRYSKAKVFEHIGKRTPIAVRFSTVAGESGSADTVRDPRGFAVKFYTEDGNWDLVGNNTPIFFIRDALLFPSFIHSQKRNPQTHLKDPDMVWDFWSLRPESLHQVSFLFSDRGIPDGHRHMNGYGSHTFKLVNANGEAVYCKFHYKTDQGIKNLSVEDAARLAHEDPDYGLRDLFNAIATGNYPSWTLYIQVMTFSEAEIFPFNPFDLTKVWPHGDYPLIPVGKLVLNRNPVNYFAEVEQLAFDPSNMPPGIEPSPDKMLQGRLFAYPDTHRHRLGPNYLQIPVNCPYRARVANYQRDGPMCMMDNQGGAPNYYPNSFSAPEHQPSALEHRTHFSGDVQRFNSANDDNVTQVRTFYLKVLNEEQRKRLCENIAGHLKDAQLFIQKKAVKNFSDVHPEYGSRIQALLDKYNEEKPKNAVHTYVQHGSHLSAREKANL
modifications: mPEG 5000
Retained enzymatic activity [7]: 95%
